From patent publication US20200199214A1 (Hoffmann-La Roche, published 2020)
Residue numbers refer to the chain shown, from its start. Blank lines part the entries; values can stand above or below the binder they belong to.

Key:
[1] = target: T1, human IL-1 beta (PeproTech 200-01B) (human, UniProt P01584 117-269); assay: SPR, Fab captured via anti-Fab antibody, human IL-1beta injected, 1:1 Langmuir fit
T1 construct: As printed it covers only the N-terminal part of the precursor, so it was not used; also called huIL-1 beta; IL1β
Method: (§1) An anti-Fab capturing antibody (GE Healthcare 28958325) was immobilized to a Series S Sensor Chip C1 (GE Healthcare 29104990) using standard amine coupling chemistry resulting in a surface density of approximately 500 resonance units (RU). The bispecific anti-VEGF/anti-IL-1beta Fab fragment was captured to the surface with resulting capture levels of approximately 20 RU. A dilution series ranging from 0.74 to 60 nM (1:3 dilution) of either human IL-1 beta (PeproTech 200-01B) or cynomolgus IL-1 beta (Sino Biological 90010-CNAE) was injected for 90 s, dissociation was monitored for at least 600 s at a flow rate of 30 μl/min. The surface was regenerated by two consecutive injections of 10 mM Glycine pH 2.1 for 60 s each. Bulk refractive index differences were corrected by subtracting blank injections and by subtracting the response obtained from the control flow cell without captured bispecific anti-VEGF/anti-IL-1beta Fab fragment. Curve fitting was performed using the 1:1 Langmuir binding model within the Biacore evaluation software.
(§2) Binding kinetics to VEGF and IL-1beta for the candidate antibodies were assessed as described in Example 3 using the indicated bispecific anti-VEGF/anti-IL-1beta Fab fragments (amino acid sequence as illustrated in Table 3). For comparison, antigen binding kinetics of prior art anti-VEGF/anti-IL-1beta antibody 0032, a full length IgG antibody, as disclosed in WO2016/075034 are depicted.

[2] = target: T2, Human VEGF121-His (human, UniProt P15692-9 27-147); assay: SPR, VEGF121-His captured via anti-His antibody, Fab injected, single cycle kinetics, 1:1 Langmuir fit
T2 construct: not shown: His tag
T2 sequence (looked up): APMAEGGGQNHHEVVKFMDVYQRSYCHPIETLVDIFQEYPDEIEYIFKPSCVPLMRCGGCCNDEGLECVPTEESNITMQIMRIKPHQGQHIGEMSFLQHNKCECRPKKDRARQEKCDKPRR
Method: (§3) An anti-His capturing antibody (GE Healthcare 28995056) was immobilized to a Series S Sensor Chip C1 (GE Healthcare 29104990) using standard amine coupling chemistry resulting in a surface density of approximately 500 resonance units (RU). As running and dilution buffer, HBS-P+(10 mM HEPES, 150 mM NaCl pH 7.4, 0.05% Surfactant P20) was used. Human VEGF121-His was captured to the surface with resulting ligand densities of approximately 10 and 20 RU, respectively. A dilution series of the bispecific anti-VEGF/anti-IL-1beta Fab fragment (1.2-100 nM, 1:3 dilution) was successively injected for 90 s each, dissociation was monitored for 3600 s at a flow rate of 30 μl/min (single cycle kinetics). The surface was regenerated by injecting 10 mM Glycine pH 1.5 for 60 s. Bulk refractive index differences were corrected by subtracting blank injections and by subtracting the response obtained from the control flow cell without captured human VEGF121. Curve fitting was performed using the 1:1 Langmuir binding model within the Biacore evaluation software. To provide more robust fitting, the Multiple Rmax option was chosen for global fitting using both ligand densities.
as §2

[3] = target: T3, cynomolgus IL-1 beta (Sino Biological 90010-CNAE) (cynomolgus, UniProt P79182 117-268); assay: SPR, Fab captured via anti-Fab antibody, cynomolgus IL-1beta injected, 1:1 Langmuir fit
T3 sequence (looked up): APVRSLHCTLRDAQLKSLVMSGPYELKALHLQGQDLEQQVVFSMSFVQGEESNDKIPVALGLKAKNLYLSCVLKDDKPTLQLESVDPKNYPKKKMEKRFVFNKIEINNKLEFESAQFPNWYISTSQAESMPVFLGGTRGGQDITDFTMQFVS
Method: as §1, §2

[4] = target: T1, human IL-1 beta (PeproTech 200-01B); assay: SPR, Fab captured via anti-Fab antibody, human IL-1beta injected, 1:1 Langmuir fit; n = 4
Method: as §1
Binding kinetics to VEGF and IL-1beta for the candidate antibodies were assessed as described in Example 3 using the indicated bispecific anti-VEGF/anti-IL-1beta Fab fragments (amino acid sequence as illustrated in Table 3). […]

[5] = target: T2, Human VEGF121-His; assay: SPR, VEGF121-His captured via anti-His antibody, Fab injected 1.2-100 nM, single cycle kinetics, 1:1 Langmuir fit
Method: as §3, §2

[6] = target: T4, VEGF165 (UniProt P15692-4 27-191); assay: competition ELISA: Fab preincubated with VEGF165, free VEGF165 bound to coated rhVEGFR-1-Fc detected; sheet title 'Competition ELISA VEGFR1-Fc, 8 pM VEGF165'
T4 construct: also called VEGF165 (Humanzyme, HZ-1153)
Method: (§4) 96-well-Plates (Maxisorp Nunc-Immoplates) were coated with 50 μL/well rhVEGFR-1-Fc (R&D #321-FL-050) at a final concentration of 1 μg/ml in 200 mM NaHC0₃, pH 9.4 for 1 hour at room temperature.
(§5) Meanwhile, antibody Fab fragments of different concentrations were preincubated with VEGF for form an antibody Fab-VEGF premix as follows: A dilution series of antibody Fab fragment was prepared by adding 280 μl of a solution of antibody Fab fragments (409.6 nM antibody in PBST-1% BSA) into the wells of the first column of a round bottom 96-well PS plate. The individual wells of columns 2-12 of the same plate were filled with 140 μl PBST-1% BSA. Subsequently, 1:2 dilutions were performed by transferring 140 μl of the antibody solution into the next column, thorough mixing and proceed with transferring 140 μl of this diluted antibody solution to the next column. This is repeated until column 11. Excess of 140 μl were discarded so that all wells comprise 140 μl. Column 12 served as the control (blank). […] 50 μl of the dilution series of the respective antibody Fab fragment were added to the VEGF121, or VEGF165, respectively; mixed thoroughly and incubated for 1.5 hours at room temperature.
(§6) The rhVEGFR-1-Fc coated plates were washed two times with PBST and blocked for 45 min with 200 μl of 2% MPBST. After washing off the MPBST solution twice with PBST, 50 μl of the antibody Fab-VEGF premix were added to the plate and incubated for 1.5 hours at room temperature. Subsequently, the plates were washed twice with PBST. Then, 50 μl of a solution comprising biotinylated anti-VEGF antibody (R&D, BAF293; 1:2000 dilution in PBST) and SA-HRP (KPL, 14-30-00; 1:2000 dilution in PBST) was added and incubated for 30 min at room temperature. After 6× washing with PBST, 50 μl of TMB substrate solution (two-component HRP substrate (KPL, 34021); used at room temperature) was added and incubated for 30 min at room temperature. 50 μl of 1N H₂SO₄ was added and absorbance was read at 450 nm.

[7] = target: T5, human VEGF121 (human, UniProt P15692-9 27-147); assay: competition ELISA: Fab preincubated with VEGF121, free VEGF121 bound to coated rhVEGFR-1-Fc detected; sheet title 'Competition ELISA VEGFR1-Fc, 8 pM VEGF121'
T5 construct: No tag is stated for these preparations; Kept apart from VEGF121-His; also called HuVEGF121
T5 sequence (looked up): T2 sequence (looked up)
Method: as §4, §5, §6

[8] = target: T2, Human VEGF121-His; assay: SPR, VEGF121-His captured via anti-His antibody, Fab injected, single cycle kinetics, 1:1 Langmuir fit (same values as Table 1)
Method: as §3, §2

[9] = target: T1, human IL-1 beta (PeproTech 200-01B); assay: SPR, Fab captured via anti-Fab antibody, human IL-1beta injected, 1:1 Langmuir fit (same values as Table 1)
Method: as §1, §2

[10] = target: T1, human IL-1 beta (PeproTech 200-01B); assay: SPR, Fab captured via anti-Fab antibody, IL-1beta injected 0.74-60 nM, 1:1 Langmuir fit
Method: as §1, §2

koff [1]: 0.000107 s⁻¹ | kon [1]: 1.66e+06 M⁻¹ s⁻¹ | Kd [2]: 0.01 nM | koff [2]: 1.47e-05 s⁻¹ | kon [2]: 1.53e+06 M⁻¹ s⁻¹ | t½ [2]: 13.2 h | Kd [3]: 0.045 nM | koff [3]: 0.000118 s⁻¹ | kon [3]: 2.6e+06 M⁻¹ s⁻¹ | t½ [3]: 1.63 h | Kd [4]: 0.059 nM | t 1/2 [4]: 1.82 h
B1: bispecific anti-VEGF/anti-IL-1beta Fab fragment 1HVL5.15 (Fab, V domains shown)
VH: DETLVESGGGLVKPGGSLRLSCAAEGMVFKWNDMSWVRQAPGKGLEWVGSISKKGDHKYLNTKFIGRFTISRDNEKDTLYLQMNSLRAEDTAVYYCAKDVGFFDIWGQGTLVTVSS
VL: AIYMHQEPSSLSASVGDRVTITCHGSYWLSSLMAWYQQKPGKAPKLLIYDAKYKHLGVPSRFSGSGSHEDYTLTISSLQPEDFATYYCQQYRYHPYTFGHGTKVEIKR

Kd [5]: 0.008 nM | koff [5]: 1.45e-05 s⁻¹ | kon [5]: 1.75e+06 M⁻¹ s⁻¹ | t 1/2 [5]: 13.3 h | IC50 (read off the curve) [6]: ~0.2 nM | IC50 (read off the curve) [7]: ~0.08 nM | Kd [8]: 0.008 nM | koff [8]: 1.45e-05 s⁻¹ | kon [8]: 1.75e+06 M⁻¹ s⁻¹ | t½ [8]: 13.3 h | Kd [9]: 4.57 nM | koff [9]: 0.0256 s⁻¹ | kon [9]: 5.61e+06 M⁻¹ s⁻¹ | t 1/2 [9]: 30 s | Kd [3]: 5.79 nM | koff [3]: 0.0182 s⁻¹ | kon [3]: 3.14e+06 M⁻¹ s⁻¹ | t½ [3]: 0.01 h | Kd [10]: 4.57 nM | koff [10]: 0.0256 s⁻¹ | kon [10]: 5.61e+06 M⁻¹ s⁻¹ | t 1/2 [10]: 30 s
B2: bispecific anti-VEGF/anti-IL-1beta Fab fragment 1HVL2.3 (Fab, V domains shown)
VH: EQLVESGGGLVKPGGSLRLSCAASGMVFSWNAMSWVRQAPGKGLEWVGSISPKGDHKYLNTKFIGRFTISRDNSKNTLYLQMNSLRAEDTAVYYCAKDIGFFDVWGQGTLVTVSS
VL: B1 VL with S31N, L32Y, M33L, K52S, K54R, H55I, L56I
notes: First expressed in E. coli TG1, later in HEK293

IC50 (read off the curve) [6]: ~0.09 nM | Kd [1]: 0.028 nM | koff [1]: 0.000135 s⁻¹ | kon [1]: 4.76e+06 M⁻¹ s⁻¹ | t 1/2 [1]: 1.43 h | Kd [2]: 0.006 nM | koff [2]: 1.51e-05 s⁻¹ | kon [2]: 2.5e+06 M⁻¹ s⁻¹ | t½ [2]: 12.7 h | IC50 (read off the curve) [7]: ~0.04 nM | Kd [3]: 0.02 nM | koff [3]: 6.54e-05 s⁻¹ | kon [3]: 3.34e+06 M⁻¹ s⁻¹ | t½ [3]: 2.95 h
B3: bispecific anti-VEGF/anti-IL-1beta Fab fragment 1HVL12.85 (Fab, V domains shown)
VH: B1 VH with T3Q
VL: B1 VL with M33V, G66K, S67E, H68D, E69Q, D70E, Y71F
